In paper PMC8113450:

Molecular target: wild-type human Elp123 sub-complex (hElp123WT) (human) (UniProt O95163)
Assay: SEC; gel filtration of purified hElp123 on Superose 6 Increase 10/300 GL; 20 mM HEPES, 150 mM NaCl, 5 mM DTT, pH 8.0; Elp1-Elp2-Elp3 trimer to dimer of trimers

For “wild-type human Elp123 sub-complex (hElp123WT), O95163 1-1332; Q6IA86 1-826; Q9H9T3 1-547”, the stoichiometry N was 2.
